From US10005846 (LIFEARC, dated 2018) come the findings set out here.

Experiment [1] deals with T1, human transglutaminase type 2 (TG2) (human, UniProt P21980 1-687).
T1 sequence: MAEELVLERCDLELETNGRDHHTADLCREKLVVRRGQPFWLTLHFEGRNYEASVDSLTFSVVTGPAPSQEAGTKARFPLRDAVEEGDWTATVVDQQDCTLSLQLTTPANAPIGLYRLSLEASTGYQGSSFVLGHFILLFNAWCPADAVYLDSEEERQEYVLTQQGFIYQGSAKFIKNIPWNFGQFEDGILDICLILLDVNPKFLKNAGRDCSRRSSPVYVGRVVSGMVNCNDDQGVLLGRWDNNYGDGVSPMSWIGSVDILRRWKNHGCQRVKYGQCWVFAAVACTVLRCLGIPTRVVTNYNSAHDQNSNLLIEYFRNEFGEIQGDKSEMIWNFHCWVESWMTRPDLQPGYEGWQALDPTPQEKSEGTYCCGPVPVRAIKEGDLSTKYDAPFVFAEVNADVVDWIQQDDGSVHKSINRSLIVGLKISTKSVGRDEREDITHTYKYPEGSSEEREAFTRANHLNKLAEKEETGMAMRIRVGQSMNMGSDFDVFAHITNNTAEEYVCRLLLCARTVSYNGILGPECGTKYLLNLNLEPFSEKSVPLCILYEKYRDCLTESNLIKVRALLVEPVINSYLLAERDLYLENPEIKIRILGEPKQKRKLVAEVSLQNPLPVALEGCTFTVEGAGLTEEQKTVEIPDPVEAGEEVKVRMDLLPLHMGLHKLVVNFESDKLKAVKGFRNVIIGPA
Put plainly: cell-based or functional assay.

Experiment [2] has as its target T2, rat TG2 (rat, UniProt Q9WVJ6 1-686, limits assumed).
T2 sequence: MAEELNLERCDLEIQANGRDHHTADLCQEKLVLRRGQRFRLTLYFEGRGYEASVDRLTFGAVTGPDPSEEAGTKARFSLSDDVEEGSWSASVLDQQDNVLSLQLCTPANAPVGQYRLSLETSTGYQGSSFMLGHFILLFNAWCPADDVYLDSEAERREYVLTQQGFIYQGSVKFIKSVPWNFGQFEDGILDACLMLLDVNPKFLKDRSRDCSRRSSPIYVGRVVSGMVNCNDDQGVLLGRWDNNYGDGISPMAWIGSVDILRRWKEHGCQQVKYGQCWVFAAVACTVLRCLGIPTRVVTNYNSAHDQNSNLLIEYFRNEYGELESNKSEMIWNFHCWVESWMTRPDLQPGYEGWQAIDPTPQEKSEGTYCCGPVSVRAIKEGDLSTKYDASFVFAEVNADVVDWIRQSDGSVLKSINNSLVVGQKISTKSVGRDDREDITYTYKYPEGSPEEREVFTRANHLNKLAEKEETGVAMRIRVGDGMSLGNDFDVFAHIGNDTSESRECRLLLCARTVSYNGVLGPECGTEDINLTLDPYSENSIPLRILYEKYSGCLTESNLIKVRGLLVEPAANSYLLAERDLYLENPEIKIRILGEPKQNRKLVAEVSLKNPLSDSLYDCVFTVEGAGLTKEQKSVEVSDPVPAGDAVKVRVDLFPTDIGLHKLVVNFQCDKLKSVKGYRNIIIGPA
Put plainly: cell-based or functional assay.

Experiment [3] addresses T2, rat TG2. Briefly: western blot and ELISA.
A further experiment has as its target T3, cynomolgus monkey TG2 (cynomolgus monkey, UniProt A0A2K5VXI8 1-687).
T3 construct: Bought recombinant protein; also called cynomogulus monkey TG2; cyano TG2
T3 sequence: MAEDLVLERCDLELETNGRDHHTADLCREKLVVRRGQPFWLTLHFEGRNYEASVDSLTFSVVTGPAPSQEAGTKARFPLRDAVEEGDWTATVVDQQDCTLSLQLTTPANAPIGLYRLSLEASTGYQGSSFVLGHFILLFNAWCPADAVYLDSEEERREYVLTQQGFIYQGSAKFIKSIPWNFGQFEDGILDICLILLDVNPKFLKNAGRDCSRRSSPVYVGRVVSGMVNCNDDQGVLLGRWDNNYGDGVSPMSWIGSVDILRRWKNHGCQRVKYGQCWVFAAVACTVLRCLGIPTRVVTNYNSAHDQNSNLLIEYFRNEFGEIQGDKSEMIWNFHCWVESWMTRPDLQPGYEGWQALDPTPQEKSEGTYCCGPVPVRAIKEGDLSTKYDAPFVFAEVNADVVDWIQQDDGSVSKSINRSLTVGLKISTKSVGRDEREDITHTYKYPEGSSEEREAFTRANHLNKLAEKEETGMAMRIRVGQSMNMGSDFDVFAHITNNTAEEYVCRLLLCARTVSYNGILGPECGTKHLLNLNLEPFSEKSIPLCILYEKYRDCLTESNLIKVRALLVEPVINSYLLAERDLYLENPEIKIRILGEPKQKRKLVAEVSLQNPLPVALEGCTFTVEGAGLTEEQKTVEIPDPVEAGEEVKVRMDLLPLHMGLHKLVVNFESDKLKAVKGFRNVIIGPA
Put plainly: ELISA on immobilised cynomolgus monkey TG2; r2 0.9986; EC50 95% confidence range 0.6682 to 0.8162 [panel A]. Here is the method:
Antibody binding to human and cynomolgus monkey TG2 was determined in an ELISA assay. Clear polystyrene "Maxisorp" 96-well plates (Nunc) were coated with 50 ng purified human or cynomogulus monkey TG2 in 50 µl 0.05 M carbonate-bicarbonate buffer pH 9.6 at 4° C. overnight. Control wells were coated with 50 µl 100 µg/ml bovine serum albumin (BSA). Plates were washed 3× with 300 µl phosphate-buffered saline pH7.4 (PBS) containing 0.1% Tween 20 (PBST) and blocked with 300 µl 3% w/v Marvel skimmed milk in PBS for 1 hour at room temperature. After 3× wash with PBST, 50 µl protein-A purified chimeric or humanised anti-TG2 antibodies or human IgG1 kappa […] control antibody or CUB7402 (Abcam) were serially diluted 4-fold from a top concentration of 50 nM in PBS, and added to the plate in duplicate. […] After 3× washes with PBST, the plates were developed with 50 µl TMB substrate (Sigma) for 5 min at room temperature before stopping the reaction with 25 µl 0.5M H2SO4 and reading absorbance at 450 nm in a microtiter plate reader (BioTek EL808). Dose response curves were analysed and EC50 values and other statistical parameters determined using a 4-parameter logistical fit of the data (GraphPad Prism).

B1: AB1 murine monoclonal antibody (antibody, V domains shown)
VH: EVQLVESGGGLVKPGGSLKLSCAASGFTLSSSAMSWVRQTPDRRLEWVATISVGGGKTYYPDSVKGRFTISRDNAKNTLYLQMNSLRSEDTAMYYCAKLISLYWGQGTTLTVSS
VL: DIKMTQSPSSMYASLGERVTITCKASQDINSYLTWFQQKPGKSPKTLIYRTNRLFDGVPSRFSGSGSGQDFFLTISSLEYEDMGIYYCLQYDDFPYTFGGGTKLEIK
notes: Mouse hybridoma IgG; heavy chain amplified with constant region primer MHCG1, kappa light chain; also called mAB003
Regarding B1, the “half-maximal concentration of enzymatic inhibition, headed EC50 nM on the sheet, IC50 in the legend [panel A]” value in experiment [1] is 9.5 nM.

B2: BB7 murine monoclonal antibody (antibody, V domains shown)
VH: AVQLVESGGGLVKPGGSLKLSCAASGIIFSSSAMSWVRQTPEKRLEWVATISSGGRSTYYPDSVKGRFTVSRDSAKNTLYLQMDSLRSEDTAIYYCAKLISPYWGQGTTLTVSS
VL: AIKMTQSPSSMYASLGERVIITCKASQDINSYLTWFQQKPGKSPKTLIYLTNRLMDGVPSRFSGSGSGQEFLLTISGLEHEDMGIYYCLQYVDFPYTFGGGTKLEIK
notes: Mouse hybridoma IgG; heavy chain amplified with primer MHCG1, kappa light chain; also called mBB001
Take B2: the “IC50 of TG2 activity, 3H putrescine incorporation” value (from here on “IC50 of TG2 activity”) with rat TG2 [2] amounted to 0.00032 mg/ml IgG per ng TG2. For the same molecule, the “half-maximal concentration of enzymatic inhibition, headed EC50 nM on the sheet, IC50 in the legend [panel B]” value in experiment [1] is 0.752 nM.

B3: DC1 murine monoclonal antibody (antibody, V domains shown)
VH: EVQLVESGGGLVKPGGSLKLSCAASGFTLSTHAMSWVRQTPEKRLEWVATISSGGRSTYYPDSVKGRFTISRDNVKNTLYLQLSSLRSEDTAVYFCARLISTYWGQGTTLTVSS
VL: DITMTQSPSSIYASLGERVTITCKASQDINSYLTWFQQKPGKSPKILIYLVNRLVDGVPSRFSGSGSGQDYALTISSLEYEDMGIYYCLQYDDFPYTFGGGTKLEIK
notes: Mouse hybridoma IgG; heavy chain amplified with primer MHCG1, kappa light chain; also called mDC001
Regarding B3, in the experiment with rat TG2 [3], the binding result is “binds”.

B4: JE12 murine monoclonal antibody (antibody, V domains shown)
VH: EVQLQQSGPELVKPGASVKMSCKASGYRFTSYVMHWVKQKSGQGLEWIGYINPYNDGAKYNEKFKGKATLTSDKSSSTAYMELSSLTSEDSAVYYCARLSSDYWGQGTTLTVSS
VL: DVLMTQNPLSLPVSLGDQASISCRSSQSIEHINGNTYLEWYLQKPGQSPKFLIYKVSNRFSGVPDRFSGSGSGTDFTLRISRVEAEDLGIYYCFQGSHVPFTFGGGTKLEIK
notes: Mouse hybridoma IgG; heavy chain amplified with primer MHCG1, kappa light chain
As to B4, the binding result in the experiment with rat TG2 [3] is given as “binds”.

B5: EH6 murine monoclonal antibody (antibody, V domains shown)
VH: EVQLQQSGPELVKPGASVKMSCKASGYTFTSYVMHWVKQKPGQGLEWIGFINPYNDGTKYNEKFKGKATLTSDKASTTAYMELSSLTSEDSAVYYCARFSSGYWGQGTTLTVSS
VL: DVLMTQTPLSLPVSLGDQASISCRSSQSIVHSNGNTYLEWYLQKPGQSPKLLIYKVSNRFSGVPDRFSGSGSGTDFTLKISRVGAEDLGVYYCLQVSHVPFTFGSGTKLEIK
notes: Mouse hybridoma IgG; heavy chain amplified with primer MHCG2B, kappa light chain
On to B5, for which the “IC50 of TG2 activity” value with rat TG2 [2] was determined as 0.000403 mg/ml IgG per ng TG2.

B6: DD9 murine monoclonal antibody (antibody, V domains shown)
VH: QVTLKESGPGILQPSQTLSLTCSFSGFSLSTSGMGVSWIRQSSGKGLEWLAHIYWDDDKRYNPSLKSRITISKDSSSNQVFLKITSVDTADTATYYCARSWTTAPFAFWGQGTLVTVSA
VL: QIVLTQSPAIMSASPGEKVTMTCSASSSVDYMYWYQQKPGSSPRLLIYDTSNLASGVPVRFSGSGSGTSYSLTISRMGAEDAATYYCQQWNSSPLTFGAGTKLELK
notes: Mouse hybridoma IgG; heavy chain amplified with primer MHCG2A, kappa light chain; also called mDD9001
B6: the “IC50 of TG2 activity” value with rat TG2 [2] was determined as 0.000303 mg/ml IgG per ng TG2.

B7: cDH001 chimeric antibody (murine DH2 variable regions) (antibody, human IgG1, V domains shown)
VH: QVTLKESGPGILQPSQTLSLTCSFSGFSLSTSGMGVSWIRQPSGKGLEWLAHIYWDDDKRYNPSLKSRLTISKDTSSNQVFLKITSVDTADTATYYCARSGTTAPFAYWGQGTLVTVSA
VL: QIVLTQSPAIMSASPGEKVTMTCSASSSVSYMYWYQQKPGSSPRLLIYDTSNLASGVPVRFSGSGSGTSYSLTISRMEAEDAATFYCQQWSSSPLTFGAGTKLELK
With B7, the EC50 with cynomolgus monkey TG2 stood at 0.739 nM.
